Experimental data taken from US20120070405A1.

Legend:
[1] = target: CXCR2 on purified human neutrophils (human) (UniProt P25025); assay: cell-based or functional assay
[2] = target: CXCR1 on CXCR1-transfected HEK293 cells (UniProt P25024); assay: cell-based or functional assay
UniProt P25024, sequence (P25024 whole entry): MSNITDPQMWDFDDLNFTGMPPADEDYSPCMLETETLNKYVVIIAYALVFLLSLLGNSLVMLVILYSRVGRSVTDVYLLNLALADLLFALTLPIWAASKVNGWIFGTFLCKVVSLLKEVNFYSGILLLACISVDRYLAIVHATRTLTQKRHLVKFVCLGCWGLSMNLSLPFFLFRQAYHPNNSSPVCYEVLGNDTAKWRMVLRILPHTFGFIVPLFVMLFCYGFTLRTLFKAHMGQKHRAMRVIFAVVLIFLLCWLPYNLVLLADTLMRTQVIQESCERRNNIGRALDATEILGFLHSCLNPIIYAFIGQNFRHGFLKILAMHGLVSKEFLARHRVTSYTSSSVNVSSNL

UniProt P25025, sequence (P25025 whole entry): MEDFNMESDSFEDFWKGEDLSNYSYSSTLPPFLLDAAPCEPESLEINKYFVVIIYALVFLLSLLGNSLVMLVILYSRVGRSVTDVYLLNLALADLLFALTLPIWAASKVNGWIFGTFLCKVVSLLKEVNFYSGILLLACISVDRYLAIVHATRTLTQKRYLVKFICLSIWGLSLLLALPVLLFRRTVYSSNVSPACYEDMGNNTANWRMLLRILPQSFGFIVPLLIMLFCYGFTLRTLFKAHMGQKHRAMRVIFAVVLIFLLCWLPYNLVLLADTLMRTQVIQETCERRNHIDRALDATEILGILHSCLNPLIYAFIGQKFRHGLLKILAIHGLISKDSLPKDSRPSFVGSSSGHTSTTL

intracellular Ca^++ flux in human neutrophils induced by CXCL1 (100 ng/ml), G31P at 10 ng/ml [1]: < 95 % reduced | intracellular Ca^++ flux in human neutrophils induced by CXCL5 (100 ng/ml), G31P at 10 ng/ml [1]: < 95 % reduced | CXCL8-induced chemotactic responses of CXCR1-transfected HEK293 cells (modified Boyden chamber), G31P at 10 ng/ml [2]: 80 % blocked
Substance: human GS-CXCL8(3-72)K11R/G31P (from UniProt P10145 30-99) (ligand)
